Data reported in US20230137139A1, “BIOSYNTHESIS OF CANNABINOIDS AND C[…]” (priority 2020, published 2023).
Numbering of substitutions follows the chain as printed.

B1: putative C. sativa CBCAS enzyme: previously disclosed putative C. sativa CBCAS (SEQ ID NO: 15) (protein)
chain: MNCSTFSFWFVCKIIFFFLSFNIQISIANPQENFLKCFSEYIPNNPANPKFIYTQHDQLYMSVLNSTIQNLRFTSDTTPKPLVIVTPSNVSHIQASILCSKKVGLQIRTRSGGHDAEGLSYISQVPFAIVDLRNMHTVKVDIHSQTAWVEAGATLGEVYYWINEMNENFSFPGGYCPTVGVGGHFSGGGYGALMRNYGLAADNIIDAHLVNVDGKVLDRKSMGEDLFWAIRGGGGENFGIIAACKIKLVVVPSKATIFSVKKNMEIHGLVKLFNKWQNIAYKYDKDLMLTTHFRTRNITDNHGKNKTTVHGYFSSIFLGGVDSLVDLMNKSFPELGIKKTDCKELSWIDTTIFYSGVVNYNTANFKKEILLDRSAGKKTAFSIKLDYVKKLIPETAMVKILEKLYEEEVGVGMYVLYPYGGIMDEISESAIPFPHRAGIMYELWYTATWEKQEDNEKHINWVRSVYNFTTPYVSQNPRLAYLNYRDLDLGKTNPESPNNYTQARIWGEKYFGKNFNRLVKVKTKADPNNFFRNEQSIPPLPPRHH
B2: t861574 (protein)
chain: MGNTTSIAGRDCLISALGGNSALAAFPNELLWTADVHEYNLNLPVTPAAITYPETAEQIAGIVKCASDYDYKVQARSGGHSFGNYGLGGADGAVVVDMKHFTQFSMDDETYEAVIGPGTTLNDVDIELYNNGKRAMAHGVCPTIKTGGHFTIGGLGPTARQWGLALDHVEEVEVVLANSSIVRASNTQNQDVFFAVKGAAANFGIVTEFKVRTEPAPGLAVQYSYTFNLGSTAEKAQFVKDWQSFISAKNLTRQFYNNMVIFDGDIILEGLFFGSKEQYDALGLEDHFAPKNPGNILVLTDWLGMVGHALEDTILKLVGNTPTWFYAKSLGFRQDTLIPSAGIDEFFEYIANHTAGTPAWFVTLSLEGGAINDIAEDATAYAHRDVLFWVQLFMVNPLGPISDTTYEFTDGLYDVLARAVPESVGHAYLGCPDPRMEDAQQKYWRTNLPRLQELKEELDPKNTFHHPQGVMPA
B3: t861590 (protein)
chain: B2 chain with I62V
B4: t861571 (protein)
chain: B2 chain with A25V, E57A, I62V, I374V, L398V
B5: t861558 (protein)
chain: B2 chain with I62V
B6: t861580 (protein)
chain: MGQTPSSPLADCLNAVCNGRDNCVAFPSAPLYQISWVDRYNLDIEVEPIAVTRPETAEDVSGFVKCAAAHNIKVQAKSGGHSYANYGLGGEDGELVVDLRNFQDFSIDTNTWQATFGAGHKLDDVTEKLHKNGKRAISHGTCPGVGIGGHATIGGLGPESRMWGSCLDHVIGVEVVTADGSIVHASDTENSDLFFALKGAGASFGIVTSFVVKTRPEPGSVVQYSYSVTFAKHADLSPVFRQWQELVMDPGLDRRFGTEFTMHELGVIISGTFYGTDEEFQATGIPDRIPKGKISVVFDDWMAVIAKHAEEAALSLSSISSAFTARSLAFRREDKISPETITNLMNYIDSADRGTLVWFLIFDATGGAISDVPTNATAYSHRDKVMYCQGYGVGIPTLNQQTKDFLSGIINTIQSGAGNTLTTYPGYVDPALTNPQESYWGPNIDTLRAIKSQWDPNDIFHNPQSVRPAAVAA
modifications: Monosporascus sp. mg162
B7: t861585 (protein)
chain: MGNTTSIAGRDCLVSALGGNAGLVAFQNQPLYQTTAVHEYNLNIPVTPAAITYPETAEQIAAVVKCASQYDYKVQARSGGHSFGNYGLGGTDGAVVVDMKYFNQFSMDDQTYEAVIGPGTTLGDVDVELYNNGKRAMAHGVCPTISTGGHFTMGGLGPTARQWGLALDHVEEVEVVLANSSIVRASNTQNQEVFFAVKGAAASFGIVTEFKVRTQPAPGIAVQYSYTFNLGSSAEKAQFIKDWQSFVSAKNLTRQFYTNMVIFDGDIILEGLFFGSKEQYEALRLEERFVPKNPGNILVLTDWLGMVGHALEDTILRLVGNTPTWFYAKSLGFTPDTLIPSSGIDEFFKYIENNKAGTSTWFVTLSLEGGAINDVPADATAYGHRDVLFWVQIFMVSPTGPVSSTTYDFADGLYNVLTKAVPESEGHAYLGCPDPKMANAQQKYWRQNLPRLEELKETLDPKDTFHNPQGILPA
modifications: N- and C-terminal signal peptides
B8: t861561 (protein)
chain: MGNTTSIAAGRDCLISAVGGNAAHVAFQDQLLYQATAVDVYNLNIPVTPAAVTYPQSADEVAAVVKCASEYDYKVQARSGGHSFGNYGLGGQNGAIVVDMKHFSQFSMDESTYTATIGPGITLGDLDTELYNAGHRAMAHGICPTIRTGGHLTIGGLGPTARQWGLALDHVEEVEVVLANSSIVRASETQNQDVLFAVKGAAASFGIVTEFKVRTEQAPGLAVQYSYTFNLGTPAEKAKLLKDWQAFIAQEDLTWKFYSNMVIFDGQIILEGIFFGSKEEYDALDLEKRFPTSEPGTLLVLTDWLGMVGHSLEDVILRLVGNTPTWFYAKSLGFTPRTLIPDSAIDRFFDYIHETNAGTLAWFVTLSLEGGAINAVPEDATAYGHRDVLFWVQIFMVNPLGPISQTIYDFADGLYDVLAQAVPESAEHAYLGCPDPKMPDAQRAYWRGNLPRLEELKGEFDPKDTFHNPQGVSVAV
B9: t861579 (protein)
chain: MGNTTSIAAGRDCLVSAVGPAHVTFQDALLYQTTAVDPYNLNIPVTPAAVTYPQSAEEIAAVVKCASDYDYKVQARSGGHSFGNYGLGGQNGAIVVDMKHFSQFSMDESTFVATIGPGTTLGDLDTELYNAGGRAMAHGICPTIRTGGHLTVGGLGPTARQWGLALDHIEEVEVVLANSSIVRASNTQNQDILFAVKGAAASFGIVTEFKVRTQEAPGLAVQYSFTFNLGSPAQKAKLVKDWQAFIAQENLSWKFYSNLVIFDGQIILEGIFFGSKEEYDELDLEKRFPTSEPGTVLVLTDWLGMIGHALEDTILKLVGDTPTWFYAKSLGFTPDTLIPDSAIDDFFDYIHKTNAGTLAWFVTLSLEGGAINSVSEDATAYGHRDVLFWFQVFVVNPLGPISQTTYDFTNGLYDVLAQAVPESAGHAYLGCPDPKMPDAQRAYWRSNLPRLEDLKGDLDPKDTFHNPQGVQVGP
B10: t861554 (protein)
chain: MGNTTSIAAGRDCLISAVGAANVAFQDQLLYQATAVQPYNLNIPVTPAAVTYPQSADEIAAVVKCASEYGYKVQARSGGHSFGNYGLGGQDGAIVIEMKHFSQFSMDESTFIATIGPGITLGDLDTDLYNAGHRAMAHGICPTIRTGGHLTVGGLGPTARQWGLALDHVEEVEVVLANSSIVRASDTQNQDLFFAIKGAAASFGIVTEFKVRTEQAPGMAVQYSYTFHLGTSAEKAKFVKDWQAFIAQENLTWKFYTNLVIFDDQIILEGIYFGTKEEYDSLGLEQRFPPTDAGTVLILTDWLAMIGHGLEDTILKLVGDTPTWFYAKSLGFTPRALIPDSAIDEFFDYIHENNPGTLAWFVTLSLEGGAINAVPEDATAYGHRDVLFWFQLFVINPLGPISQTTYGFADGLYDVLAQAVPESASHAYMGCPDPRMPNAQRAYWRSNLPKLEELKGYLDPEDIFHNPQGVVPS

system: CBCA, THCA, and CBDA production; experiment: In vivo TS activity assay, Example 1 CBCAS library screen, cultures fed olivetolic acid, LC-MS; type: cell-based, S. cerevisiae; conditions: primary and secondary screen
Description: To identify CBCAS genes that can be functionally expressed in host cells, a library of approximately 3000 candidate CBCAS genes was designed based on internal codebases and domain knowledge, sampled across enzyme families, ecological niches, and structural homologies. Protein sequences were recoded in silico for expression in S. cerevisiae and synthesized in the integrative yeast expression vector shown in FIG. 5. Each candidate enzyme expression construct was transformed into an S. cerevisiae CEN.PK strain that also expressed a prenyltransferase enzyme capable of catalyzing reaction R^4 in FIG. 2. Strain t616313, expressing GFP, was included in the library screen as a negative control for enzyme activity. […]
An assay to detect TS activity was conducted as follows: each thawed glycerol stock of candidate CBCAS transformants was stamped into a well of YEP+4% dextrose media. […] Optical measurements were taken on a plate reader, with absorbance measured at 600 nm and fluorescence at 528 nm with 485 nm excitation. […] CBCA, THCA, and CBDA production in the samples was quantified via liquid chromatography-mass spectrometry (LC-MS). […]

Molecule	CBCAS activity / CBCA production
B1	not found to be active

system: CBCA production; experiment: In vivo TS activity assay, Example 4 CBCAS enzymes with and without signal peptides, no pH adjustment; type: cell-based; conditions: strains with (Y) or without (N) N-terminal and C-terminal signal peptides; no pH adjustment at Day 4; S. cerevisiae
Procedure: An assay to detect TS activity was conducted as follows: each thawed glycerol stock of candidate CBCAS transformants was stamped into a well of YEP+4% dextrose media. Samples were incubated at 30° C. in a shaking incubator for 2 days. A portion of each of the resulting cultures was stamped into a well of YEP+4% galactose+1 mM olivetolic acid (FIG. 1 Structure 6a). Samples were incubated at 20° C. and shaken in a shaking incubator for 4 days. Every 24 hours during those 4 days, 2% galactose and 1 mM olivetolic acid were spiked into the cultures. Sodium citrate buffer adjusted to pH 5.5 was added to each well at a final concentration of 100 mM. Samples were incubated at 20° C. and shaken in a shaking incubator for 2 days. A portion of each of the resulting production cultures was stamped into a well of phosphate buffered saline (PBS). Optical measurements were taken on a plate reader, with absorbance measured at 600 nm and fluorescence at 528 nm with 485 nm excitation. Samples were incubated at 30° C. in a shaking incubator for 2 days. 100% methanol was stamped into the production cultures in half-height deepwell plates. Plates were heat sealed and frozen. Samples were then thawed for 30 min and spun down at 4° C. A portion of the supernatant was stamped into half-area 96 well plates. CBCA, THCA, and CBDA production in the samples was quantified via liquid chromatography-mass spectrometry (LC-MS).
A library of 20 CBCAS enzymes selected from Example 1 and 3 was synthesized, including versions of the CBCAS enzymes with and without the N-terminal MFalpha2 signal peptide (SEQ ID NO: 16) and C-terminal HDEL signal peptide (SEQ ID NO: 17). Each candidate enzyme expression construct was transformed into an S. cerevisiae CEN.PK strain that also expressed a prenyltransferase enzyme capable of catalyzing reaction R^4 in FIG. 2. Strain t861555 expressing the A. niger CBCAS identified in Example 1, carrying both the Mfalpha2 and HDEL signal peptides was included in the library screen as a positive control for enzyme activity. Strain t861565 expressed the same A. niger CBCAS without the Mfalpha2 and HDEL signal peptides.
The strains were screened using the assay described in Example 1 with the following exception: at Day 4 samples were not subjected to a pH adjustment and a further 2 days of incubation at 20° C.

Molecule	Average CBCA [µg/L]
B2	38142.03
B3	55852.93
B4	54271.76
B5	27898.00
B6	0.00
B7	39673.45
B8	46161.25
B9	57912.84
B10	5334.71
